Experimental data from US20230272113A1.
Where a chain is given by its changes, count along the chain named.

B1: FL-61 (scFv)
scFv: QVQLVESGGGVVQPGRSLRLSCAASGFTFSSYGMHWVRQAPGKGLEWVAVISYDGSNEFYADSVKGRFTISRDNSKNTLYLQMNSLRAEDTAVYYCARGGEITMVRGVIGYYYYGMDVWGQGTTVTVSSGGGGSGGGGSGGGGSDIQMTQSPSSLSASVGDRVTITCRASQSISSYLNWYQQKPGKAPKLLIYAASSLQSGVPSRFSGSGSGTEFTLTISSLQPEDFATYYCLQHNSYPLTFGGGTKVEIK
B2: FL-63 (scFv)
scFv: B1 scFv with A169T, E249D
B3: FL-64 (scFv)
scFv: B1 scFv with D161N, E249D
B4: FL-7 (scFv)
scFv: QVTLKESGPTLVKPTETLTLTCTVSGFSLNNARMGVSWIRQPPGKALEWLAHIFSNDEKSYSTSLKNRLTISKDSSKTQVVLTMTNVDPVDTATYYCARIVGYGTGWFGYFDYWGQGTQVTVSSGGGGSGGGGSGGGGSDIQMTQSPSSLSASVGDRVTITCRASQDIRTDLAWYQQKPGKAPKRLIYAASSLQSGVPSRFSGSGSGTEFTLTISSLQPEDFATYYCLQHNRYPLTFGGGTKVDIK
B5: FL-8 (scFv)
scFv: QVTLKESGPALVKPTETLTLTCTVSGFSLSYARMGVSWIRQPPGKALEWLAQIFSNDEKSYSTSLKSRLTISKGTSNSQVVLTMTNMDPEDTATYYCARIVGYGTGWYGFFDYWGQGILVTVSSGGGGSGGGGSGGGGSDIQMTQSPSSLSASVGDRVTITCRASQGIRNDLGWYQQKPGKAPKRLIYAASSLQSGVPSRFSGSGSGTEFTLTISSLQPEDFATYYCLQHNSYPLTFGGGTKVDIK
B6: FL-60 (scFv)
scFv: QVTLKESGPALVKPTQTLTLTCTFSGFSLSNARMGVSWIRQPPGKALEWLAHIFSNDEKSYSTSLKSRLTISKDTSKRQVVLTMTNMDPVDTATYYCARMVGYGSGWYAYFDYWGQGTLVTVSSGGGGSGGGGSGGGGSDIVMTQTPLSLSVTPGQPASISCRSSQSLLHSNGYNYLYWYLQKPGQPPQLLIYEVSNRFSGVPDRFSGSGSGTDFTLKISRVEAEDVGVYYCMQALQTPLTFGGGTKVEIK
B7: FL-1 (scFv)
scFv: QVTLKESGPVLVKPTETLTLTCTVSGFSLINARMGVSWIRQPPGKALEWLAHIFSNAEKSYRTSLKSRLTISKDTSKSQVVLTMTNMDPVDTATYYCARIPGYGGNGDYHYYGMDVWGQGTTVTVSSGGGGSGGGGSGGGGSDIQMTQSPSSLSASLGDRVTITCRASQGIRNDLGWYQQKPGKAPKRLIYASSTLQSGVPSRFSGSGSGTEFTLTISSLQPEDFATYYCLQHNNFPWTFGQGTKVEIK
B8: FL-4 (scFv)
scFv: QVTLKESGPALVKPTETLTLTCTLSGFSLNNAKMGVSWIRQPPGKALEWLAHIFSNDEKSYSTSLKSRLTISKDTSKGQVVLTMTNMDPVDTATYYCARIVGYGSGWYGYFDYWGQGTLVTVSSGGGGSGGGGSGGGGSDIQMTQSPSSLSASVGDRVTITCRASQDIRDDLGWYQQKPGNAPKRLIYGASTLQSGVPSRFSGSGSGTEFTLTISSLQPEDFATYYCLQHNSYPLTFGGGTKVDIK
B9: FL-58 (scFv)
scFv: QVTLKESGPTLVKPTETLTLTCTVSGFSLRNVRMGVSWIRQPPGKALEWLAHISSNDEKSYSTSLRSRLTISTDTSKSQVVLTMTNMDPVDTATYYCARMPGDSNTWRGFFDYWGQGTLVTVSSGGGGSGGGGSGGGGSEIVMTQSPATLSVSPGERATLSCRTSQSVNNNLAWYQQKPGQAPRLLIYGASTRATGIPARFSGSGSGTEFTLTISSLQPEDFATYYCLQHNSYPLTFGGGTKVEIK
B10: FL-59 (scFv)
scFv: QVTLKESGPMLVKPTETLTLTCTVSGFSLRNVRMGVSWIRQPPGKALEWLAHIFSNDEKSYSTSLKSRLTISKDTSKSQVVLTLTNMDPVDTATYFCARMPEYSSGWSGAFDIWGQGTMVTVSSGGGGSGGGGSGGGGSDIQMTQSPSSLSASVGDRVTITCRASQDIRDDLGWYQQKPGNAPKRLIYGASTLQSGVPSRFSGSGSGTEFTLTISSLQPEDFATYYCLQHNSYPLTFGGGTRLEIK
B11: FL-2 (scFv)
scFv: QVTLKESGPVLVKPTETLTLTCTVSGFSLRNARMGVSWIRQPPGKALEWLAHIFSNDEKTYSTSLKSRLTISRDTSKGQVVLTMTKMDPVDTATYYCARIPYYGSGSHNYGMDVWGQGTTVTVSSGGGGSGGGGSGGGGSDIQMTQSPSSLSASVGDRVTITCRASQDIRNDFGWYQQKPGKAPQRLLYAASTLQSGVPSRFSGSGSGTEFTLTISSLQPEDFATYYCLQYNTYPWTFGQGTKVEIK
B12: FL-62 (scFv)
scFv: QVQLVESGGGVVQPGRSLRLSCAASGFTFSSYGMHWVRQAPGKGLEWVAVISYDGSNEFYADSVKGRFTISRDNSKNTLYLQMNSLRAEDTAVYYCARGGEITMVRGVIGYYYYGMDVWGQGTTVTVSSGGGGSGGGGSGGGGSEIVMTQSPATLSVSPGERATLSCRASQGVRNNLVWYQQKPGQAPRLLIYGASTRATGIPARFSGSGSGTEFTLTISSLQSEDFATYYCLQHNSYPLTFGGGTKVEIK
B13: FL-6 (scFv)
scFv: QVTLKESGPTLVKPTETLTLTCTLSGFSLNNARMAVSWIRQPPGKTLEWLAHIFSNDEKSYSPSLKSRLTISKDTSKSQVVLTMTNMDPEDTATYYCARIVGYGTGWYGFFDYWGQGILVTVSSGGGGSGGGGSGGGGSDIQMTQSPSSLSASVGDRVTITCRASQGIRNDLGWFQQKPGKAPKRLIYAASVLQSGVPSRFSGSGSGTEFTLTISSLQPEDFATYYCLQHNSYPLTFGGGTKVDIK
B14: FL-3 (scFv)
scFv: QVTLKESGPALVKPTETLTLTCTVSGFSLSNARMAVSWIRQPPGKALEWLAHIFSNGEKSYSTSLKSRLTISKDTSKTQVVLTMTNTDPVDTATYFCARIVGYSDWLLPFDHWGQGIMVTVSSGGGGSGGGGSGGGGSDIQMTQSPSSLSASVGDRVTITCRASQNINRFLNWYQQKPGKAPKLLIYAASSLQSGVPSRFSGSGSGTDFTLTISSLQPEDFATYYCLQHNSYPWTFGQGTKVDIK
B15: FL-5 (scFv)
scFv: QVTLKESGPMLVKPTETLTLTCTFSGFSLRNARMGVSWIRQPPGKALEWLAHIFWNDEKSYSTSLKSRLTISKDTSKSQVVLTMTNMDPVDTATYYCARIPYYGSGSYNYGMDVWGQGTTVTVSSGGGGSGGGGSGGGGSDIQMTQSPSSLSASVGDRVTITCRASQGIRNDLGWYQQKPGKAPKRLIYAASSLQSGVPSRFSGSGSGTEFTLTISSLQPEDFATYYCLQHNTYPLTFGGGTKVDIK

Target: human FLT3 on transfected CHO cells (human) (UniProt P36888)
Test: FACS, scFv on CHO-human FLT3 cells pre-incubated with FLT3 ligand (competitor)

| median [+ligand]/median [w/o ligand]*100 [%] | Binder |
| --- | --- |
| > 75 | B1 |
| > 75 | B2 |
| > 75 | B3 |
| > 75 | B4 |
| > 75 | B5 |
| > 75 | B6 |
| > 75 | B7 |
| > 75 | B8 |
| > 75 | B9 |
| > 75 | B10 |
| > 75 | B11 |
| > 75 | B12 |
| > 75 | B13 |
| > 75 | B14 |
| > 75 | B15 |
